# Measurements from patent US20090099029A1, “Methods and substrates for conducting assays” (Invitrogen Corporation, priority 2005, published 2009).
# System: kinases of Table 6 on Myelin Basic Protein (MBP)
# Assay: Kinase assay using MBP substrate, ProQ Diamond stain (Table 6)
# Format: biochemical
# Settings: kinase printed on MBP-coated slide; 20 uM ATP, 30° C.; ProQ Diamond Microarray Stain; graded Strong/Weak/Negative
# Protocol: In this illustrative example, four-well slides were designed with a hydrophobic mask surrounding 4-wells of aldehyde- or epoxy-coated glass (smooth or ES grade; Erie Scientific (Portsmouth, N.H.)). […] Bovine, dephosphorylated, Myelin Basic Protein (MBP) was purchased from Upstate Biotechnology (#13-110). MBP was diluted to 1 mg/ml in PBS, applied to the slide surface, covered with a coverslip, and left overnight at 4° C. to coat the slide with the MBP. Slides were washed 3 times with water and spun dry before printing.
# Kinases were purchased from Panvera (Invitrogen, Carlsbad, Calif.), diluted in printing buffer (50 mM Tris pH 7.5, 25% glyercol, 0.05% TritonX-100, 2 mM DTT) and deposited using a GeneMachine OmniGrid100. Slides were stored at −20° C.
# Reactions were performed following removal of the slide from the freezer. Reaction buffer (20 mM HEPES pH 7.5, 4 mM MgCl2, 2 mM DTT, 20 uM ATP, 5% DMSO) was added with or without inhibitor, a coverslip applied, and the slide placed at 30° C. for the appropriate reaction time. The slide was washed with water to stop the reaction (3 times) and spun dry. ProQ Diamond Microarray Stain (Invitrogen #P33706) was applied, covered with a coverslip, and the slide was incubated in the dark at room temperature for 30 minutes. The slide was destained and washed three times with water, and spun dry.
row,Molecule,MBP Kinase Activity
1,"GSK3A (protein, left off: small tags and cut ends) MSGGGPSGGGPGGSGRARTSSFAEPGGGGGGGGGGPGGSASGPGGTGGGKASVGAMGGGVGASSSGGGPGGSGGGGSGGPGAGTSFPPPGVKLGRDSGKVTTVVATLGQGPERSQEVAYTDIKVIGNGSFGVVYQARLAETRELVAIKKVLQDKRFKNRELQIMRKLDHCNIVRLRYFFYSSGEKKDELYLNLVLEYVPETVYRVARHFTKAKLTIPILYVKVYMYQLFRSLAYIHSQGVCHRDIKPQNLLVDPDTAVLKLCDFGSAKQLVRGEPNVSYICSRYYRAPELIFGATDYTSSIDVWSAGCVLAELLLGQPIFPGDSGVDQLVEIIKVLGTPTREQIREMNPNYTEFKFPQIKAHPWTKVFKSRTPPEAIALCSSLLEYTPSSRLSPLEACAHSFFDELRCLGTQLPNNRPLPPLFNFSAGELSIQPSLNAILIPPHLRSPAGTTTLTPSSQALTETPTSSDWQSTDATPTLTNSS",Weak
2,"GRK7 (protein, left off: a dimerising Fc or GST) MVDMGALDNLIANTAYLQARKPSDCDSKELQRRRRSLALPGLQGCAELRQKLSLNFHSLCEQQPIGRRLFRDFLATVPTFRKAATFLEDVQNWELAEEGPTKDSALQGLVATCASAPAPGNPQPFLSQAVATKCQAATTEEERVAAVTLAKAEAMAFLQEQPFKDFVTSAFYDKFLQWKLFEMQPVSDKYFTEFRVLGKGGFGEVCAVQVKNTGKMYACKKLDKKRLKKKGGEKMALLEKEILEKVSSPFIVSLAYAFESKTHLCLVMSLMNGGDLKFHIYNVGTRGLDMSRVIFYSAQIACGMLHLHELGIVYRDMKPENVLLDDLGNCRLSDLGLAVEMKGGKPITQRAGTNGYMAPEILMEKVSYSYPVDWFAMGCSIYEMVAGRTPFKDYKEKVSKEDLKQRTLQDEVKFQHDNFTEEAKDICRLFLAKKPEQRLGSREKSDDPRKHHFFKTINFPRLEAGLIEPPFVPDPSVVYAKDIAEIDDFSEVRGVEFDDKDKQFFKNFATGAVPIAWQEEIIETGLFEELNDPNRPTGCEEGNSSKSGVCLLL",Negative
3,"EPHA3 (protein, left off: small tags and cut ends) RFCGYKSKHGADEKRLHFGNGHLKLPGLRTYVDPHTYEDPTQAVHEFAKELDATNISIDKVVGAGEFGEVCSGRLKLPSKKEISVAIKTLKVGYTEKQRRDFLGEASIMGQFDHPNIIRLEGVVTKSKPVMIVTEYMENGSLDSFLRKHDAQFTVIQLVGMLRGIASGMKYLSDMGYVHRDLAARNILINSNLVCKVSDFGLSRVLEDDPEAAYTTRGGKIPIRWTSPEAIAYRKFTSASDVWSYGIVLWEVMSYGERPYWEMSNQDVIKAVDEGYRLPPPMDCPAALYQLMLDCWQKDRNNRPKFEQIVSILDKLIRNPGSLKIITSAAARPSNLLLDQSNVDITTFRTTGDWLNGVWTAHCKEIFTGVEYSSCDTIAKISTDDMKKVGVTVVGPQKKIISSIKALETQSKNGPVPV",Strong
4,"DYRK3 (protein, left off: a dimerising Fc or GST) MGGTARGPGRKDAGPPGAGLPPQQRRLGDGVYDTFMMIDETKCPPCSNVLCNPSEPPPPRRLNMTTEQFTGDHTQHFLDGGEMKVEQLFQEFGNRKSNTIQSDGISDSEKCSPTVSQGKSSDCLNTVKSNSSSKAPKVVPLTPEQALKQYKHHLTAYEKLEIINYPEIYFVGPNAKKRHGVIGGPNNGGYDDADGAYIHVPRDHLAYRYEVLKIIGKGSFGQVARVYDHKLRQYVALKMVRNEKRFHRQAAEEIRILEHLKKQDKTGSMNVIHMLESFTFRNHVCMAFELLSIDLYELIKKNKFQGFSVQLVRKFAQSILQSLDALHKNKIIHCDLKPENILLKHHGRSSTKVIDFGSSCFEYQKLYTYIQSRFYRAPEIILGSRYSTPIDIWSFGCILAELLTGQPLFPGEDEGDQLACMMELLGMPPPKLLEQSKRAKYFINSKGIPRYCSVTTQADGRVVLVGGRSRRGKKRGPPGSKDWGTALKGCDDYLFIEFLKRCLHWDPSARLTPAQALRHPWISKSVPRPLTTIDKVSGKRVVNPASAFQGLGSKLPPVVGIANKLKANLMSETNGSIPLCSVLPKLIS",Negative
5,"MAP2K6(MKK6) (protein, left off: small tags and cut ends) MSQSKGKKRNPGLKIPKEAFEQPQTSSTPPRDLDSKACISIGNQNFEVKADDLEPIMELGRGAYGVVEKMRHVPSGQIMAVKRIRATVNSQEQKRLLMDLDISMRTVDCPFTVTFYGALFREGDVWICMELMDTSLDKFYKQVIDKGQTIPEDILGKIAVSIVKALEHLHSKLSVIHRDVKPSNVLINALGQVKMCDFGISGYLVDSVAKTIDAGCKPYMAPERINPELNQKGYSVKSDIWSLGITMIELAILRFPYDSWGTPFQQLKQVVEEPSPQLPADKFSAEFVDFTSQCLKKNSKERPTYPELMQHPFFTLHESKGTDVASFVKLILGD",Weak
6,"MAP2K6, mutant (protein, left off: small tags and cut ends) MSQSKGKKRNPGLKIPKEAFEQPQTSSTPPRDLDSKACISIGNQNFEVKADDLEPIMELGRGAYGVVEKMRHVPSGQIMAVKRIRATVNSQEQKRLLMDLDISMRTVDCPFTVTFYGALFREGDVWICMELMDTSLDKFYKQVIDKGQTIPEDILGKIAVSIVKALEHLHSKLSVIHRDVKPSNVLINALGQVKMCDFGISGYLVDEVAKEIDAGCKPYMAPERINPELNQKGYSVKSDIWSLGITMIELAILRFPYDSWGTPFQQLKQVVEEPSPQLPADKFSAEFVDFTSQCLKKNSKERPTYPELMQHPFFTLHESKGTDVASFVKLILGD",Negative
7,"MAP2K3(MEK3) (protein, left off: a dimerising Fc or GST) MSKPPAPNPTPPRNLDSRTFITIGDRNFEVEADDLVTISELGRGAYGVVEKVRHAQSGTIMAVKRIRATVNSQEQKRLLMDLDINMRTVDCFYTVTFYGALFREGDVWICMELMDTSLDKFYRKVLDKNMTIPEDILGEIAVSIVRALEHLHSKLSVIHRDVKPSNVLINKEGHVKMCDFGISGYLVDSVAKTMDAGCKPYMAPERINPELNQKGYNVKSDVWSLGITMIEMAILRFPYESWGTPFQQLKQVVEEPSPQLPADRFSPEFVDFTAQCLRKNPAERMSYLELMEHPFFTLHKTKKTDIAAFVKEILGEDS",Negative
8,"GRK4 (protein, left off: a dimerising Fc or GST) MELENIVANSLLLKARQGGYGKKSGRSKKWKEILTLPPVSQCSELRHSIEKDYSSLCDKQPIGRRLFRQFCDTKPTLKRHIEFLDAVAEYEVADDEDRSDCGLSILDRFFNDKLAAPLPEIPPDVVTECRLGLKEENPSKKAFEECTRVAHNYLRGEPFEEYQESSYFSQFLQWKWLERQPVTKNTFRHYRVLGKGGFGEVCACQVRATGKMYACKKLQKKRIKKRKGEAMALNEKRILEKVQSRFVVSLAYAYETKDALCLVLTIMNGGDLKFHIYNLGNPGFDEQRAVFYAAELCCGLEDLQRERIVYRDLKPENILLDDRGHIRISDLGLATEIPEGQRVRGRVGTVGYMAPEVVNNEKYTFSPDWWGLGCLIYEMIQGHSPFKKYKEKVKWEEVDQRIKNDTEEYSEKFSEDAKSICRMLLTKNPSKRLGCRGEGAAGVKQHPVFKDINFRRLEANMLEPPFCPDPHAVYCKDVLDIEQFSVVKGIYLDTADEDFYARFATGCVSIPWQNEMIESGCFKDINKSESEEALPLDLDKNIHTPVSRPNRGFFYRLFRRGGCLTMVPSEKEVEPKQC",Negative
9,"IRAK4 (protein, left off: small tags and cut ends) MNKPITPSTYVRCLNVGLIRKLSDFIDPQEGWKKLAVAIKKPSGDDRYNQFHIRRFEALLQTGKSPTSELLFDWGTTNCTVGDLVDLLIQNEFFAPASLLLPDAVPKTANTLPSKEAITVQQKQMPFCDKDRTLMTPVQNLEQSYMPPDSSSPENKSLEVSDTRFHSFSFYELKNVTNNFDERPISVGGNKMGEGGFGVVYKGYVNNTTVAVKKLAAMVDITTEELKQQFDQEIKVMAKCQHENLVELLGFSSDGDDLCLVYVYMPNGSLLDRLSCLDGTPPLSWHMRCKIAQGAANGINFLHENHHIHRDIKSANILLDEAFTAKISDFGLARASEKFAQTVMTSRIVGTTAYMAPEALRGEITPKSDIYSFGVVLLEIITGLPAVDEHREPQLLLDIKEEIEDEEKTIEDYIDKKMNDADSTSVEAMYSVASQCLHEKKNKRPDIKKVQQLLQEMTAS",Strong
10,"GRK6 (protein, left off: a dimerising Fc or GST) MELENIVANTVLLKAREGGGGNRKGKSKKWRQMLQFPHISQCEELRLSLERDYHSLCERQPIGRLLFREFCATRPELSRCVAFLDGVAEYEVTPDDKRKACGRQLTQNFLSHTGPDLIPEVPRQLVTNCTQRLEQGPCKDLFQELTRLTHEYLSVAPFADYLDSIYFNRFLQWKWLERQPVTKNTFRQYRVLGKGGFGEVCACQVRATGKMYACKKLEKKRIKKRKGEAMALNEKQILEKVNSRFVVSLAYAYETKDALCLVLTLMNGGDLKFHIYHMGQAGFPEARAVFYAAEICCGLEDLHRERIVYRDLKPENILLDDHGHIRISDLGLAVHVPEGQTIKGRVGTVGYMAPEVVKNERYTFSPDWWALGCLLYEMIAGQSPFQQRKKKIKREEVERLVKEVPEEYSERFSPQARSLCSQLLCKDPAERLGCRGGSAREVKEHPLFKKLNFKRLGAGMLEPPFKPDPQAIYCKDVLDIEQFSTVKGVELEPTDQDFYQKFATGSVPIPWQNEMVETECFQELNVFGLDGSVPPDLDWKGQPPAPPKKGLLQRLFSRQDCCGNCSDSEEELPTRL",Negative
